Measurements taken from paper PMC314469, “Protein Interaction Networks by Proteome Peptide Scanning” (PLoS Biology, 2004).

Target: T1, Abp1 SH3 (ABP1_YEAST), P15891
T1 chain: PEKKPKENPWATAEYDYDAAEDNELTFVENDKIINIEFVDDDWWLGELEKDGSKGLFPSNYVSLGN
Assay: SPOT array

| Binder | normalised SPOT signal, Boehringer light units (BLU); mean over the file's lines of this peptide |
| --- | --- |
| RSMTDILPLSSKP [YCR066W 152-164] | 5410 |
| RNIPPPPPPPPPKP [YMR089C 152-165] | 1000 |
| RRSADIGTDKPVKP [YPL181W 404-417] | 121 |
| RKSSDIGHIDPWRP [YOR156C 78-91] | 77.8 |
| RLLSTKKPMFDRP [YKL219W 373-385] | 955 |
| RPGIPLKPMLAKP [YDL164C 386-398] | 42200 |
| RRQHEQWPAYEKP [YHR185C 60-72] | 300 |
| RLLLEFDEEYPNKP [YGL058W 54-67] | 97.1 |
| RNLFDDAPATPPRP [YJL194W 14-27] | 126 |
| RLTSEPNPDLIRP [YPR045C 202-214] | 94.5 |
| RRSSYGYNEVPPKP [YHL024W 604-617] | 188 |
| RSSTPSHPRMPKP [YBR245C 789-801] | 1930 |
| RRKKQKKKPTPTRP [YKL089W 336-349] | 33.3 |
| RQIMIKSPNDFKP [YBL034C 808-820] | 2000 |
| RQPTIATTDKPDRP [YDR246W 151-164] | 83.4 |
| RLNAVKHPKILKP [YER081W 41-53] | 188 |
| SAIPLGTPEKGKP [YMR086W 669-681] | 105 |
| RSRHEVPKRSPEKP [YNL278W 803-816] | 76.3 |
| RWINKIGPLFDKP [YDR176W 652-664] | 287 |
| RYTYLPSPSYFRP [YPL066W 175-187] | 276 |

| Binder | normalised SPOT signal, Boehringer light units (BLU); mean over the file's lines of this peptide |
| --- | --- |
| RNFYKKYTGLPKKP [YOL090W 17-30] | 112 |
| RPSQTLTPMGNKP [YGR097W 8-20] | 4080 |
| RTKAIHSHGAPFRP [YBL080C 12-25] | 49.4 |
| RRMQKFLPPEGKP [YPR140W 364-376] | 615 |
| RMTDSVLVKSPQKP [YLR006C 664-677] | 2960 |
| RPAGINDSPSPVKP [YGR092W 44-57] | 71 |
| RLSSVSLSKRPERP [YKL185W 146-159] | 412 |
| RHAFRITPQAERP [YLL057C 379-391] | 555 |
| RIESRNEPLKTRP [YMR201C 33-45] | 196 |
| RVSITKQPKALKP [YIL074C 41-53] | 244 |
| RQPIVQTPHVPDRP [YPR104C 727-740] | 56.7 |
| RRRDFGAPANKRP [YGR074W 130-142] | 71.9 |
| RSEKIMPFLSPPRP [YGL064C 428-441] | 701 |
| RYASSLPPNALKP [YGL191W 8-20] | 219 |
| RVRKTHVPASKRP [YGL061C 212-224] | 78.6 |
| RKTWESIPPKFRP [YOR236W 58-70] | 1050 |
| RNRASTLPSYPKP [YMR172W 515-527] | 224 |
| RLNDQDHPLQAKP [YHR159W 69-81] | 104 |
| RIPVLPPPRSPNRP [YER158C 359-372] | 7670 |
| RSLSLMDPALQKP [YDR186C 539-551] | 431 |

| Binder | normalised SPOT signal, Boehringer light units (BLU); mean over the file's lines of this peptide |
| --- | --- |
| RLPKALLPIGNRP [YOR260W 63-75] | 702 |
| RKKQKKKPTPTRP [YKL089W 337-349] | 106 |
| RNNAYLPEFEPNRP [YNL233W 771-784] | 44.7 |
| RNTAQSGNLKPERP [YEL062W 541-554] | 115 |
| RSRLQEKELPPIKP [YBL007C 612-625] | 88.5 |
| RRKIERDPNAPKKP [YDR174W 96-109] | 66.1 |
| RLSVKSSRRNPGKP [YGL041C 90-103] | 125 |
| RIFPPIDDPLPFKP [YDR284C 245-258] | 92.4 |
| RKLTFADVKKPDKP [YMR273C 809-822] | 62.6 |
| RPTQVSRPLGGRP [YDR024W 78-90] | 3290 |
| RSSITNPVFNPRKP [YMR068W 271-284] | 527 |
| RPLIQKGPLYQKP [YDR104C 1028-1040] | 359 |
| RRFSKRHNSNPRKP [YFR032C 54-67] | 89 |
| RPPPPPIPSTQKP [YNL094W 468-480] | 2820 |
| RVEMQSKKEDPNRP [YMR241W 239-252] | 1200 |
| RSNKWRSIGTPSRP [YCR033W 218-231] | 148 |
| RPQIYSEPTRTKP [YPR122W 608-620] | 373 |
| RNTTLTWPQLFKP [YOR144C 235-247] | 344 |
